The values below come from paper PMC3571920.

In this test the target is HIV-1 integrase tagged at the C-terminus with the HA epitope (IN-HA) (HIV-1 (Lai molecular clone)). Put plainly: cross-linking; gel filtration fractions 30-32 (IN complex III) of extracts of infected LEDGF/p75 knock-down TL34 cells, 2 h p.i.; 0.25 to 2 mM EGS, 30 min at room temperature, 20 mM HEPES-KOH pH 7.2, 0.3 M KCl; SDS-PAGE and anti-HA-HRP blot.

As usually defined, the stoichiometry N is a count of units in the complex or per binding partner. Substance “HIV-1 integrase tagged at the C-terminus with the HA epitope (IN-HA) (enzyme)” registered a stoichiometry N of 4.
